Data published in the supplement of paper PMC9112550, “Optimization of the antimicrobial peptide Bac7 by deep mutational scanning” (BMC Biology, 2022).

Each sequence was assayed on Escherichia coli TOP10 (assay: shrunken log2 fold change of peptide-encoding DNA abundance (4.5 h post-induction vs induction); higher = less antimicrobial activity (less host growth inhibition)). Settings: time post-induction: 4.5 h; library: site-saturation at positions 5, 18, 19, 20.
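Note: peptides expressed intracellularly from a pBAD plasmid library in pooled LB shake-flask culture, induced with 0.3% L-arabinose, DNA abundance read by NGS, three biological replicates, DESeq2 with apeglm shrinkage.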

Going from RRIRDRPPRLPRPRPRPRRWPRP to RRIRTRPPRLPRPRPRPTGSPRP, the “shrunken log2 fold change” value falls from 0.453 to 0.0948.

First: RRIRYRPPRLPRPRPRPLCQPRP
Second: RRIRLRPPRLPRPRPRPQFWPRP
The “shrunken log2 fold change” value of the first is lower: -0.648 for the first, 0.099 for the second.

Going from RRIRTRPPRLPRPRPRPIQYPRP to RRIRNRPPRLPRPRPRPIKHPRP, the “shrunken log2 fold change” value falls from -0.044 to -0.724.

RRIRERPPRLPRPRPRPLTYPRP and RRIRKRPPRLPRPRPRPSGSPRP are within 0.2 log units of each other in “shrunken log2 fold change” value: -0.188 for the first, -0.0809 for the second.

First: RRIRIRPPRLPRPRPRPKYRPRP
Second: RRIRMRPPRLPRPRPRPFMAPRP
The “shrunken log2 fold change” value of the first is higher: 0.0239 for the first, -0.236 for the second.

Compared with RRIRCRPPRLPRPRPRPPRSPRP, RRIRWRPPRLPRPRPRPDDEPRP is lower in “shrunken log2 fold change” value: 0.993 for the first, 0.606 for the second.

RRIRMRPPRLPRPRPRPDIYPRP and RRIRLRPPRLPRPRPRPVKVPRP are within 0.2 log units of each other in “shrunken log2 fold change” value: 0.0832 for the first, -0.0103 for the second.

First: RRIRLRPPRLPRPRPRPSQFPRP
Second: RRIRERPPRLPRPRPRPQNYPRP
The “shrunken log2 fold change” value of the first is higher: -0.12 for the first, -0.409 for the second.

RRIRWRPPRLPRPRPRPRWQPRP and RRIRWRPPRLPRPRPRPQVHPRP are within 0.2 log units of each other in “shrunken log2 fold change” value: -0.0189 for the first, 0.0992 for the second.

RRIRQRPPRLPRPRPRPLIPPRP and RRIRQRPPRLPRPRPRPDFWPRP are within 0.2 log units of each other in “shrunken log2 fold change” value: 0.114 for the first, 0.0103 for the second.

Going from RRIRLRPPRLPRPRPRPAELPRP to RRIRIRPPRLPRPRPRPEPFPRP, the “shrunken log2 fold change” value rises from -0.172 to 0.126.

RRIRCRPPRLPRPRPRPNWRPRP and RRIRERPPRLPRPRPRPTPKPRP are within 0.2 log units of each other in “shrunken log2 fold change” value: 0.437 for the first, 0.525 for the second.

First: RRIRYRPPRLPRPRPRPQWMPRP
Second: RRIRKRPPRLPRPRPRPIPNPRP
The “shrunken log2 fold change” value of the first is lower: -0.19 for the first, 0.159 for the second.

RRIRQRPPRLPRPRPRPWVGPRP and RRIRCRPPRLPRPRPRPIRLPRP are within 0.2 log units of each other in “shrunken log2 fold change” value: -0.0518 for the first, -0.0542 for the second.

Going from RRIRQRPPRLPRPRPRPMWMPRP to RRIRKRPPRLPRPRPRPKNQPRP, the “shrunken log2 fold change” value rises from 0.0583 to 0.419.

Going from RRIRQRPPRLPRPRPRPAFPPRP to RRIRARPPRLPRPRPRPCFAPRP, the “shrunken log2 fold change” value rises from 0.0799 to 0.61.

RRIRQRPPRLPRPRPRPWSEPRP and RRIRSRPPRLPRPRPRPQYGPRP are within 0.2 log units of each other in “shrunken log2 fold change” value: -0.266 for the first, -0.118 for the second.

RRIRYRPPRLPRPRPRPVWEPRP and RRIRKRPPRLPRPRPRPCCSPRP are within 0.2 log units of each other in “shrunken log2 fold change” value: -0.3 for the first, -0.189 for the second.

First: RRIRYRPPRLPRPRPRPRQHPRP
Second: RRIRPRPPRLPRPRPRPSQMPRP
The “shrunken log2 fold change” value of the first is lower: -0.571 for the first, 0.185 for the second.

Going from RRIRHRPPRLPRPRPRPVGWPRP to RRIRIRPPRLPRPRPRPAEHPRP, the “shrunken log2 fold change” value falls from 0.535 to 0.0405.

First: RRIRARPPRLPRPRPRPDCWPRP
Second: RRIRARPPRLPRPRPRPGHYPRP
The “shrunken log2 fold change” value of the first is higher: 1.21 for the first, 0.186 for the second.

Compared with RRIRKRPPRLPRPRPRPEYAPRP, RRIRDRPPRLPRPRPRPPQNPRP is higher in “shrunken log2 fold change” value: -0.000279 for the first, 0.409 for the second.

RRIRRRPPRLPRPRPRPDNFPRP and RRIRMRPPRLPRPRPRPLDLPRP are within 0.2 log units of each other in “shrunken log2 fold change” value: 0.028 for the first, 0.062 for the second.

Going from RRIRKRPPRLPRPRPRPECMPRP to RRIRFRPPRLPRPRPRPSMDPRP, the “shrunken log2 fold change” value falls from 1.58 to -0.819.

Compared with RRIRGRPPRLPRPRPRPRGDPRP, RRIRCRPPRLPRPRPRPDQVPRP is lower in “shrunken log2 fold change” value: 0.481 for the first, -0.183 for the second.

First: RRIRRRPPRLPRPRPRPYSEPRP
Second: RRIRGRPPRLPRPRPRPGERPRP
The “shrunken log2 fold change” value of the first is lower: -0.154 for the first, 0.731 for the second.

Compared with RRIRRRPPRLPRPRPRPFHDPRP, RRIRFRPPRLPRPRPRPVPMPRP is higher in “shrunken log2 fold change” value: -0.307 for the first, 0.108 for the second.

RRIRTRPPRLPRPRPRPIPAPRP and RRIRVRPPRLPRPRPRPPWFPRP are within 0.2 log units of each other in “shrunken log2 fold change” value: 0.0613 for the first, 0.0493 for the second.

RRIRGRPPRLPRPRPRPHCTPRP and RRIRQRPPRLPRPRPRPYSGPRP are within 0.2 log units of each other in “shrunken log2 fold change” value: -0.0815 for the first, -0.126 for the second.

Compared with RRIRSRPPRLPRPRPRPHDDPRP, RRIRKRPPRLPRPRPRPVMIPRP is higher in “shrunken log2 fold change” value: -0.114 for the first, 0.0956 for the second.

RRIRARPPRLPRPRPRPGPPPRP and RRIRKRPPRLPRPRPRPVSRPRP are within 0.2 log units of each other in “shrunken log2 fold change” value: 0.736 for the first, 0.652 for the second.

Compared with RRIRRRPPRLPRPRPRPHMCPRP, RRIRGRPPRLPRPRPRPRRSPRP is higher in “shrunken log2 fold change” value: -0.0222 for the first, 0.767 for the second.

Compared with RRIRTRPPRLPRPRPRPPPEPRP, RRIRFRPPRLPRPRPRPIQGPRP is lower in “shrunken log2 fold change” value: 0.643 for the first, 0.0616 for the second.

First: RRIRYRPPRLPRPRPRPADWPRP
Second: RRIRSRPPRLPRPRPRPPYKPRP
The “shrunken log2 fold change” value of the first is higher: 0.0899 for the first, -0.465 for the second.

RRIRARPPRLPRPRPRPCEHPRP and RRIRCRPPRLPRPRPRPKAIPRP are within 0.2 log units of each other in “shrunken log2 fold change” value: 0.0977 for the first, -0.0563 for the second.

Going from RRIRCRPPRLPRPRPRPRRCPRP to RRIRARPPRLPRPRPRPIKRPRP, the “shrunken log2 fold change” value falls from 0.42 to 0.0415.

Compared with RRIRCRPPRLPRPRPRPGICPRP, RRIRGRPPRLPRPRPRPLRWPRP is higher in “shrunken log2 fold change” value: -0.0835 for the first, 1.33 for the second.

RRIRCRPPRLPRPRPRPIDQPRP and RRIRRRPPRLPRPRPRPMEPPRP are within 0.2 log units of each other in “shrunken log2 fold change” value: -0.0719 for the first, 0.0257 for the second.

First: RRIRGRPPRLPRPRPRPCETPRP
Second: RRIRRRPPRLPRPRPRPFAKPRP
The “shrunken log2 fold change” value of the first is higher: 0.496 for the first, 0.219 for the second.

First: RRIRLRPPRLPRPRPRPGKNPRP
Second: RRIRRRPPRLPRPRPRPIWNPRP
The “shrunken log2 fold change” value of the first is lower: -0.304 for the first, 0.0946 for the second.

Going from RRIRFRPPRLPRPRPRPFPAPRP to RRIRRRPPRLPRPRPRPGEKPRP, the “shrunken log2 fold change” value rises from -0.132 to 0.0687.

RRIRPRPPRLPRPRPRPPMLPRP and RRIRDRPPRLPRPRPRPDWGPRP are within 0.2 log units of each other in “shrunken log2 fold change” value: 0.18 for the first, 0.161 for the second.

Compared with RRIRMRPPRLPRPRPRPHNEPRP, RRIRPRPPRLPRPRPRPFPDPRP is higher in “shrunken log2 fold change” value: -0.356 for the first, 0.00657 for the second.

Compared with RRIRGRPPRLPRPRPRPRKRPRP, RRIRTRPPRLPRPRPRPYVCPRP is lower in “shrunken log2 fold change” value: 1.21 for the first, -0.215 for the second.

Compared with RRIRHRPPRLPRPRPRPMDDPRP, RRIRWRPPRLPRPRPRPYIAPRP is lower in “shrunken log2 fold change” value: -0.118 for the first, -0.825 for the second.

First: RRIRERPPRLPRPRPRPGLPPRP
Second: RRIRRRPPRLPRPRPRPERAPRP
The “shrunken log2 fold change” value of the first is lower: -0.112 for the first, 0.79 for the second.

First: RRIRWRPPRLPRPRPRPQQAPRP
Second: RRIRERPPRLPRPRPRPYPWPRP
The “shrunken log2 fold change” value of the first is higher: -0.000157 for the first, -0.706 for the second.

Compared with RRIRDRPPRLPRPRPRPKIPPRP, RRIRMRPPRLPRPRPRPLRLPRP is higher in “shrunken log2 fold change” value: -0.355 for the first, 0.959 for the second.

RRIRHRPPRLPRPRPRPAVCPRP and RRIRPRPPRLPRPRPRPCPEPRP are within 0.2 log units of each other in “shrunken log2 fold change” value: 0.0561 for the first, -0.123 for the second.

Compared with RRIRHRPPRLPRPRPRPNMNPRP, RRIRMRPPRLPRPRPRPGGAPRP is higher in “shrunken log2 fold change” value: -0.424 for the first, 1.17 for the second.

Going from RRIRGRPPRLPRPRPRPFADPRP to RRIRLRPPRLPRPRPRPCESPRP, the “shrunken log2 fold change” value falls from 2.03 to 0.0102.

RRIRDRPPRLPRPRPRPAKNPRP and RRIRQRPPRLPRPRPRPLYHPRP are within 0.2 log units of each other in “shrunken log2 fold change” value: -0.119 for the first, -0.283 for the second.

Going from RRIRNRPPRLPRPRPRPSFMPRP to RRIRARPPRLPRPRPRPGYFPRP, the “shrunken log2 fold change” value rises from -1.21 to 0.212.

First: RRIRARPPRLPRPRPRPLRWPRP
Second: RRIRTRPPRLPRPRPRPRVGPRP
The “shrunken log2 fold change” value of the first is higher: 0.809 for the first, 0.364 for the second.

Going from RRIRCRPPRLPRPRPRPMRCPRP to RRIRTRPPRLPRPRPRPKCQPRP, the “shrunken log2 fold change” value falls from 0.404 to -0.144.

Going from RRIRFRPPRLPRPRPRPPAIPRP to RRIRIRPPRLPRPRPRPYRAPRP, the “shrunken log2 fold change” value falls from 0.363 to -0.77.

Compared with RRIRNRPPRLPRPRPRPRGMPRP, RRIRNRPPRLPRPRPRPAPVPRP is higher in “shrunken log2 fold change” value: 0.151 for the first, 0.406 for the second.

Compared with RRIRDRPPRLPRPRPRPTVEPRP, RRIRCRPPRLPRPRPRPNVDPRP is lower in “shrunken log2 fold change” value: 0.766 for the first, -0.215 for the second.

RRIRHRPPRLPRPRPRPDCMPRP and RRIRPRPPRLPRPRPRPNDRPRP are within 0.2 log units of each other in “shrunken log2 fold change” value: -0.291 for the first, -0.0965 for the second.

RRIRWRPPRLPRPRPRPIKAPRP and RRIRNRPPRLPRPRPRPMTTPRP are within 0.2 log units of each other in “shrunken log2 fold change” value: 0.00489 for the first, -0.174 for the second.

RRIRNRPPRLPRPRPRPKADPRP and RRIRYRPPRLPRPRPRPLQVPRP are within 0.2 log units of each other in “shrunken log2 fold change” value: -0.0273 for the first, -0.0974 for the second.

First: RRIRRRPPRLPRPRPRPLNIPRP
Second: RRIRTRPPRLPRPRPRPEVTPRP
The “shrunken log2 fold change” value of the first is lower: -0.651 for the first, -0.00738 for the second.

With RRIRARPPRLPRPRPRPYHHPRP the “shrunken log2 fold change” value was -0.826.
